# Experimental data reported in article PMC13193136.
# System: SOX2 DNA-binding domain (human)
# Experiment: PIC-NIC microarray
# Settings: Protein-specific binding buffers (Supplementary Methods, not in the material), PBM incubation 1 h at room temperature, hybridization simulated at 150 mM Na+ …
Substance,"binding signal (fold signal vs intact duplex) (nick at position 3, 5' phosphate)",binding signal (fold (reference))
"SOX2 site nick 3, 5'P retained",3,–
SOX2 site intact,–,1
